Results from patent US20240209080A1, “FOLR1 BINDING AGENTS, CONJUGATES THEREOF AND METHODS OF USING THE SAME” (PROFOUNDBIO US CO., priority 2021, published 2024).

Test system: Hela cells
Test: Flow cytometry binding to Hela cells
Conditions: transfection supernatant, FIG. 1
Experimental: The binding activity of the antibodies to Hela cells (ATCC® CCL-2, provided by COBIOER) and to RPTEC/TERT1 cells (ATCC® CRL-4031, provided by COBIOER) was tested by flow cytometry using the transfection supernatants. Briefly, target cells were digested with 0.02% EDTA-2Na, centrifuged at 1500 rpm for 3 mins, and resuspended with PBS. After counting, the cells were added to a 1.5 ml centrifuge tube with 1×10^6 cells per tube, centrifuged at 1500 rpm for 5 minutes, and the supernatant was discarded. Then all the operations were carried out on an ice bath. 100 μL of transfection supernatant was added to each 1.5 ml centrifuge tube. Blank cells, blank cells plus secondary antibody, medium and HEK293 supernatant were set up as the controls. The reaction was performed on an ice bath for 1 hour. Then the cells were pelleted and washed twice with PBS. The secondary antibody, goat anti-Human IgG (PE, abcam, ab98596), was diluted (1:200) and added using 100 μL per tube. The reaction was performed on an ice bath for 1 hour in the dark. The cells were pelleted again and washed twice with PBS, resuspended in 300 μL PBS, and FL2 fluorescence readings were measured by cytometry. The results were analyzed by FlowJoTM10 software.
Anti-FOLR1 antibody binding to Hela and RPTEC/TERT1 cells was tested by FACS. The study was carried out as described above. […]

B1: F40: fully human anti-FOLR1 antibody (IgG1), VH SEQ ID NO:9, VL SEQ ID NO:10 (antibody, V domains shown)
VH: EVQLLESGGGVVQPGRSLRLSCAASGFTFSSYAMHWVRQAPGKGLEWVAVISYDGSNKYYADSVKGRFIISRDNSKNTVYLQMNSLRAEDTAVYYCARPTYVFTYTGSSFDYWGQGTQVTVSS
VL: DIQVTQSPSSLSASLGDTVSITCRASRGLTDSVAWYQQKPGQAPKLLIYAASTLQSGVPSRFGGSGSGSYFTLTITSLQPEDVATYYCQNYKSAPWTFGQGTKVEIK
modifications: Synthetic F40 VH amino acid sequence; Synthetic F40 VL amino acid sequence
For B1, the “Hela cell binding (in words)” value was “weakly positive”.
